{"source": "patent US20220041709A1", "about": "(MITSUBISHI TANABE PHARMA, published 2022)", "binders": {"B1": {"name": "human anti-IL-33 monoclonal antibody A10-1C04 (antibody, human IgG1, lambda, V domains shown)", "VH": "EVQLLESGGGLVQPGGSLRLSCAASGFTFSDYYMNWVRQAPGKGLEWVSSISRYSSYIYYADSVKGRFTISRDNSKNTLYLQMNSLRAEDTAVYYCARDIGGMDVWGQGTLVTVSS", "VL": "QSVLTQPPSASGTPGQRVTISCTGSSSNIGAVYDVHWYQQLPGTAPKLLIYRNNQRPSGVPDRFSGSKSGTSASLAISGLRSEDEADYYCQTYDSSRWVFGGGTKLTVLG", "notes": "Detected with anti-human IgG antibody in the ELISA"}}, "key": {"Human IL-33 [1]": {"molecular_target": "T1, Human IL-33 (human, UniProt O95760 112-270, limits assumed)", "T1 construct": "also called NF-HEV", "T1 sequence (looked up)": "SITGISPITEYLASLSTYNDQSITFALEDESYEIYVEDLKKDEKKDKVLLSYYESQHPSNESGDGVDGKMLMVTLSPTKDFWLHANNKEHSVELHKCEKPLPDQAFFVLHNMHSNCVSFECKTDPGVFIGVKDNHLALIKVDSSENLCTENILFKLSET", "experiment": "ELISA on plate-coated human IL-33, HRP anti-human IgG detection; 10 mg/mL formulation stored 1 year at 2 to 8 C", "experimental": "(§1) Compositions of 10 mg/mL of each human anti-IL-33 monoclonal antibody (A10-1C04, A23-1A05, A25-2C02, A25-3H04 or A26-1F02) were prepared with 10 mM histidine/pH 6/0.02% (w/v) polysorbate 80/3.6% (w/v) sorbitol, and then each filled into a glass vial and sealed with a halogenated butyl rubber stopper, and stored for 1, 2 and 3 years at a temperature of 2 to 8° C. as a long-term stability test. The presence or absence of aggregation was confirmed by visual examination for 5 seconds each under a 2000 to 3750 Lux fluorescent lamp, against white and black board backgrounds. The binding activity was evaluated by the following method. Human IL-33 was added to a 96-well plate and allowed to form a solid phase overnight. BSA was used for blocking, and then the sample solution was added to each well, reacted with HRP-labeled anti-human IgG antibody and colored with TMB. The absorbance at 450 nm and 650 nm was then measured with a plate reader (Molecular Devices Corp.) to determine the EC50 value. The EC50 value of the standard solution was also determined in the same manner, and the ratio was calculated."}, "Human IL-33 [2]": {"molecular_target": "T1, Human IL-33", "experiment": "ELISA on plate-coated human IL-33, HRP anti-human IgG detection; 150 mg/mL formulation, 2 to 8 C, T0", "experimental": "The presence or absence of aggregation was confirmed by visual examination for 5 seconds each under a 2000 to 3750 Lux fluorescent lamp, against white and black board backgrounds. The binding activity was evaluated by the following method. Human IL-33 was added to a 96-well plate and allowed to form a solid phase overnight. BSA was used for blocking, and then the sample solution was added to each well, reacted with HRP-labeled anti-human IgG antibody and colored with TMB. The absorbance at 450 nm and 650 nm was then measured with a plate reader (Molecular Devices Corp.) to determine the EC50 value. The EC50 value of the standard solution was also determined in the same manner, and the ratio was calculated.\n(§2) Compositions of 150 mg/mL of each human anti-IL-33 monoclonal antibody (A10-1C04, A23-1A05, A25-2C02, A25-3H04 or A26-1F02) were prepared with 10 mM histidine/pH 6/0.02% (w/v) polysorbate 80/4.0% (w/v) sorbitol, and then each was filled into a glass vial and sealed with a halogenated butyl rubber stopper, and stored for 3 and 6 months at a temperature of 2 to 8° C. as a long-term stability test. The evaluation was conducted by the same method as Example 14."}, "Human IL-33 [3]": {"molecular_target": "T1, Human IL-33", "experiment": "ELISA on plate-coated human IL-33, HRP anti-human IgG detection; 10 mg/mL formulation stored 2 years at 2 to 8 C", "experimental": "as §1"}, "Human IL-33 [4]": {"molecular_target": "T1, Human IL-33", "experiment": "ELISA on plate-coated human IL-33, HRP anti-human IgG detection; 10 mg/mL formulation, 2 to 8 C, T0", "experimental": "as §1"}, "Human IL-33 [5]": {"molecular_target": "T1, Human IL-33", "experiment": "ELISA on plate-coated human IL-33, HRP anti-human IgG detection; 150 mg/mL formulation stored 3 months at 2 to 8 C", "experimental": "as §1, with “monoclonal” for “Compositions of 10 mg/mL of each human anti-IL-33 monoclonal”, “and stored for 1, 2 and 3 years at a temperature of 2 to” left out\nas §2, with “The evaluation was conducted by the same method as Example 14.” left out"}, "Human IL-33 [6]": {"molecular_target": "T1, Human IL-33", "experiment": "ELISA on plate-coated human IL-33, HRP anti-human IgG detection; 10 mg/mL formulation stored 3 years at 2 to 8 C", "experimental": "as §1"}, "Human IL-33 [7]": {"molecular_target": "T1, Human IL-33", "experiment": "ELISA on plate-coated human IL-33, HRP anti-human IgG detection; 150 mg/mL formulation stored 6 months at 2 to 8 C", "experimental": "as §1, with “monoclonal” for “Compositions of 10 mg/mL of each human anti-IL-33 monoclonal”, “and stored for 1, 2 and 3 years at a temperature of 2 to” left out\nas §2, with “The evaluation was conducted by the same method as Example 14.” left out"}}}
{"binder": "B1", "values": [{"measurement": "Binding activity (ratio of EC50 to that of the standard solution)", "setting": "Human IL-33 [1]", "result": 110, "unit": "%"}, {"measurement": "Binding activity (ratio of EC50 to that of the standard solution)", "setting": "Human IL-33 [2]", "result": 115, "unit": "%"}, {"measurement": "Binding activity (ratio of EC50 to that of the standard solution)", "setting": "Human IL-33 [3]", "result": 101, "unit": "%"}, {"measurement": "Binding activity (ratio of EC50 to that of the standard solution)", "setting": "Human IL-33 [4]", "result": 100, "unit": "%"}, {"measurement": "Binding activity (ratio of EC50 to that of the standard solution)", "setting": "Human IL-33 [5]", "result": 110, "unit": "%"}, {"measurement": "Binding activity (ratio of EC50 to that of the standard solution)", "setting": "Human IL-33 [6]", "result": 101, "unit": "%"}, {"measurement": "Binding activity (ratio of EC50 to that of the standard solution)", "setting": "Human IL-33 [7]", "result": 100, "unit": "%"}]}
